# Residues, ends and D or L forms follow the SMILES beside them. *: point of attachment. Cbz = O=C(OCc1ccccc1)*
# What was measured:
# Type in all cases: cell-based
# [1] = biological target: T1, mutant (A53T) α-synuclein (Homo sapiens, UniProt P37840, A53T); assay: ELISA of aggregated α-synuclein (Syn-O4 capture) in lysates of transfected HEK293 cells
# T1 construct: expressed in transfected cells; host or cells: HEK293
# Description: Cells were also treated with either Bafilomycin A1, an inhibitor of late phase autophagy (10 nM and 100 nM), or MG132, a proteasome inhibitor (0.1 μM and 1 μM). Aggregated synuclein in cell lysates were determined by ELISA using an anti-aggregated synuclein antibody.
# Expression vector plasmids encoding various protein constructs were transfected into HEK293 cells with Lipofectamine 3000 transfection reagent (Thermo Fisher Scientific). One day after transfection, culture medium was replaced with fresh medium containing bafilomycin al (BFA) or MG132, and cells were incubated for additional 48 hours. Cells were lysed in lysis buffer (20 mM Tris, pH 7.4, 150 mM NaCl, 1 mM EDTA, 0.1% NP-40) supplemented with protease inhibitor cocktail (Complete Protease Inhibitor Cocktail; Sigma) and 2 mM PMSF. After brief sonication, cell lysates were analyzed in ELISA or immunoblotting assay.
# The aggregation status of expressed α-synuclein was monitored with α-synuclein aggregate-specific antibody Syn-O4 (BioLegend). Syn-O4 is a conformation-specific monoclonal antibody that recognizes specifically α-synuclein aggregates but not the soluble, monomeric form of the protein^58. Microtiter plate wells were coated with Syn-O4 overnight at 4° C., and after coating, the wells were washed three times with PBS, blocked for one hour with PBS containing 1% BSA, and washed again with PBS. […]
# [2] = biological target: T1, mutant (A53T) α-synuclein; assay: Immunoblot of total α-synuclein in lysates of transfected HEK293 cells
# Description: (§1) FIG. 3A: Wild type (WT) α-synuclein (Syn(WT): bars 1-3) or mutant α-synuclein (Syn(A53T): bars 4-6) was expressed alone or with a Flag epitope-tagged fusion protein comprising the J-domain DnaJB1 and a α-synuclein-binding domain (J-SynBP1: bars 2 and 5) or a control fusion protein construct comprising a mutated J-domain (containing a P33Q substitution) and a α-synuclein-binding peptide (J(MT)-SynBP1: bars 3 and 6) in HEK293 cells. Two days later, cells were homogenized in Tris buffer (10 mM Tris, pH7.4, 140 mM NaCl, 1 mM EDTA supplemented with protease inhibitor cocktail). Aggregation of mutant α-synuclein levels were quantified with sandwich ELISA, in which aggregated α-synuclein proteins were captured by coated-Syn-O4 antibody, followed by detection with HRP-conjugated anti-α-synuclein antibody (BioLegend: A15115A). FIG. 3B Lysates were prepared from HEK293 cells transiently transfected with wildtype Syn(WT) (lanes 1-3) or mutant Syn(A53T) (lane 4-6) alone or co-expressed with the fusion protein constructs. After brief sonication, the cell lysate was subjected to SDS-PAGE/immuno blotting with anti-α-synuclein antibody (Ab-2: top panel), Flag antibody (middle panel) or anti-Tubulin antibody (bottom panel).
# Cells were transfected with either wildtype (lane 2) or mutant (lanes 3-8) α-synuclein, and also transfected with the JB1-SynBP1 fusion protein (lanes 4-8). […]
# (§2) Expression vector plasmids encoding various protein constructs were transfected into HEK293 cells with Lipofectamine 3000 transfection reagent (Thermo Fisher Scientific). Cell lysates were analyzed for expressed proteins using immunoblot assays. […] After brief sonication, the samples were analyzed for expressed proteins using immunoblot assays. […]
# (§3) Expressed proteins were detected using a chemiluminescent signal. […]
# Expression vector plasmids encoding various protein constructs were transfected into HEK293 cells with Lipofectamine 3000 transfection reagent (Thermo Fisher Scientific). […] After brief sonication, cell lysates were analyzed in ELISA or immunoblotting assay.
# [3] = biological target: T2, wildtype α-synuclein (Homo sapiens, UniProt P37840); assay: ELISA of aggregated α-synuclein (Syn-O4 capture) in lysates of transfected HEK293 cells; conditions: co-expression with wildtype α-synuclein, ELISA on cell lysates, bars 1-3
# T2 construct: expressed in transfected cells; host or cells: HEK293
# Description: as §1, with “FIG. 3B Lysates were prepared from HEK293 cells transiently transfected with wildtype Syn(WT) (lanes 1-3) or mutant Syn(A53T) (lane 4-6) alone or co-expressed with the fusion protein constructs. After brief sonication, the cell lysate was subjected to SDS-PAGE/immuno blotting with anti-α-synuclein antibody (Ab-2: top panel), Flag antibody (middle panel) or anti-Tubulin antibody (bottom panel).” left out
# as §2
# The aggregation status of expressed α-synuclein was monitored with α-synuclein aggregate-specific antibody Syn-O4 (BioLegend). […]
# [4] = biological target: T2, wildtype α-synuclein; assay: Immunoblot of total α-synuclein in lysates of transfected HEK293 cells; conditions: wildtype Syn(WT), lanes 1-3
# Description: as §1, with “FIG. 3B Lysates were prepared from HEK293 cells transiently transfected with wildtype Syn(WT) (lanes 1-3) or mutant Syn(A53T) (lane 4-6) alone or co-expressed with the fusion protein constructs. After brief sonication, the cell lysate was subjected to SDS-PAGE/immuno blotting with anti-α-synuclein antibody (Ab-2: top panel), Flag antibody (middle panel) or anti-Tubulin antibody (bottom panel).” left out
# as §2, §3
# [5] = biological target: T3, mutant (A53T) α-synuclein phosphorylated at Ser129 (Homo sapiens, UniProt P37840, A53T); assay: Level of phosphorylated α-synuclein (Ser129) on co-expression of fusion protein constructs; conditions: Table 13, wildtype alone = 100%, mutant alone = 92.1%
# T3 construct: expressed in transfected cells
# [6] = HEK293, BFA at either 10 nM or 100 nM
# [7] = HEK293, MG132 (0.1 μM and 1 μM)
molecule,measurement,setting,value
"CO/C1=C\C(C)=C\[C@@H](C)[C@@H](O)[C@@H](C)C/C(C)=C/C=C/[C@H](OC)[C@@H]([C@@H](C)[C@@H](O)[C@H](C)[C@@]2(O)C[C@@H](O)[C@H](C)[C@@H](C(C)C)O2)OC1=O [BFA, Bafilomycin A1, reference compound]",effect of inhibitor on aggregated α-synuclein in cells expressing mutant α-synuclein and construct 1,[1]; [6],restoration of total and aggregated α-synuclein to levels matching cells expressing mutant α-synuclein alone
same,effect of inhibitor on total α-synuclein in cells expressing mutant α-synuclein and construct 1,[2]; [6],restoration of total and aggregated α-synuclein to levels matching cells expressing mutant α-synuclein alone
"CC(C)C[C@@H](C=O)NC(=O)[C@H](CC(C)C)NC(=O)[C@H](CC(C)C)NC(=O)OCc1ccccc1 [MG132, reference compound] (Cbz-Leu-Leu-Leu-aldehyde)",effect of inhibitor on aggregated level of α-synuclein in cells expressing mutant α-synuclein and construct 1,[1]; [7],little effect
same,effect of inhibitor on total level of α-synuclein in cells expressing mutant α-synuclein and construct 1,[2]; [7],little effect
"Construct 2: Same as construct 1, but containing a P33Q mutation within the J domain (control)",amount of detectable aggregated α-synuclein (FIG. 3A),[3],higher overall aggregation
same,"overall level of α-synuclein (FIG. 3B, Western blot)",[4],relatively similar levels
same,"overall level of α-synuclein (FIG. 3B, Western blot)","[2]; HEK293 cells, mutant Syn(A53T), lanes 4-6",relatively similar levels
"Construct 10: J domain from human DnaJB1 fused to 4XGGGGS linker, in turn, fused on its C-terminus to QBP1",ability to reduce mutant (A53T) synuclein aggregation (Table 11),[1]; Mutant (A53T),potently reduce α-synuclein aggregation
Construct 11: J domain from human DnaJB1 fused on its C-terminus to SynBP1 (with flexible GGGGS linker),Phosphorylated α-synuclein,[5],19.1%
Construct 12: J domain from human DnaJB1 fused on its C-terminus to SynBP1 (with rigid EAAAK linker),Phosphorylated α-synuclein,[5],23.1%
Construct 13: J domain from human DnaJB1 fused on its C-terminus to SynBP1 (no linker),Phosphorylated α-synuclein,[5],4.5%
